Laboratory results: article PMC4048260

Tests used:
[1] = target: NL4-3 gp140 trimer (soluble, uncleaved gp140 from the X4 HIV-1 subtype B strain NL4-3) (HIV-1 (subtype B, strain NL4-3)); experiment: negative-stain electron microscopy, single particle 3D reconstruction; purified trimers, ~0.02 mg/ml, 2% uranyl formate, about 3,000 particles per data set, C3 symmetry applied, resolution ~25 Å
[2] = target: NL4-3/ADA gp140 trimer (hybrid: NL4-3 gp140 with the V3 spanning region of the R5 strain ADA) (HIV-1 (subtype B, strain NL4-3) | HIV-1 (subtype B, strain ADA)); experiment: as above

**Q.** “NL4-3 gp140 trimer (soluble, uncleaved gp140 from the X4 HIV-1 subtype B strain NL4-3) (domain or fragment)” was tested. Which stoichiometry N [1] did it give?
**A.** 3

**Q.** How did the stoichiometry N [2] turn out when “NL4-3/ADA gp140 trimer (hybrid: NL4-3 gp140 with the V3 spanning region of the R5 strain ADA) (domain or fragment)” was run?
**A.** 3
